Measurements reported in patent US20260115255A1 (CYTUNE PHARMA, published 2026).

Columns and labels:
FcγRIIIa F158 = molecular target: T1, FcγRIIIa F158 (human, UniProt P08637 17-208); assay: SPR; ratio of affinity (1/Kd) for FcγRIIIa F158 to affinity for FcγRIIb
T1 construct: Captured on the chip through an anti-His tag antibody; construct not described; also called hFcγRIIIaF158; CD16a F158
Description: (§1) SPR experiments were performed on a Biacore 8K (Cytiva, Chicago, IL, USA), using CM5 sensor chips (Cytiva) with an immobilization using THE His tag antibodies (Genscript). FcγRIIIa V158, FcγRIIIa F158 or FcγRIIb protein were used for capture with a contact time of 30 sec at a flow rate of […] in a 1×HBS-EP+ running buffer. Association/dissociation rates were measured for each tested immunocytokine at a flow rate of 30 μl/min with concentration serial dilution in a suitable range with an association time/dissociation time of 300 s/300 s except for constructs with DLE and DE with and without afucosylation, where association/dissociation time of 120 s/1200 s was applied.

FcγRIIIa V158 = molecular target: T2, FcγRIIIa V158 (human, UniProt P08637 17-208); assay: SPR; ratio of affinity (1/Kd) for FcγRIIIa V158 to affinity for FcγRIIb
T2 construct: Captured on the chip through an anti-His tag antibody, so it carries a His tag; construct not described; also called hFcγRIIIaV158; FcγIIIa V158
Description: as §1

B1: hCl1a (antibody)
chain 1: not shown
chain 2: DIQMTQSPSSLSASVGDRVTITCRASEDIYSNLAWYQQKPGKAPKLLIFSVKRLQDGVPSRFSGSGSGTDFTLTISSLQPEDFATYYCLQGSNFPLTFGQGTKVEIKRTVAAPSVFIFPPSDEQLKSGTASVVCLLNNFYPREAKVQWKVDNALQSGNSQESVTEQDSKDSTYSLSSTLTLSKADYEKHKVYACEVTHQGLSSPVTKSFNRGEC
FcγRIIIa F158
  A/I (F158): 20.6
FcγRIIIa V158
  A/I (V158): 83.8

B2: hCl1a DLE-RLI DANA afuc (other)
heavy 1: QVQLVQSGAEVKKPGASVKVSCKASGYTFTDYAMHWVRQAPGQRLEWMGWINTYTGKPTYAQKFQGRVTITRDTSASTAYMELSSLRSEDTAVYYCARAVFYGYTMDAWGQGTLVTVSSASTKGPSVFPLAPSSKSTSGGTAALGCLVKDYFPEPVTVSWNSGALTSGVHTFPAVLQSSGLYSLSSVVTVPSSSLGTQTYICNVNHKPSNTKVDKKVEPKSCDKTHTCPPCPAPELLGGPDVFLFPPKPKDTLMISRTPEVTCVVVDVSHEDPEVKFNWYVDGVEVHNAKTKPREEQYNSTYRVVSVLTVLHQDWLNGKEYKCKVSNKALPLPEEKTISKAKGQPREPQVYTLPPSRDELTKNQVSLWCLVKGFYPSDIAVEWESNGQPENNYKTTPPVLDSDGSFFLYSKLTVDKSRWQQGNVFSCSVMHEALHNHYTQKSLSLSPGITCPPPMSVEHADIWVKSYSLYSRERYICNSGFKRKAGTSSLTECVLNKATNVAHWTTPSLKCIRDPALVHQRPAPPSGGSGGGGSGGGSGGGGSGGNWVNVISDLKKIEDLIQSMHIDATLYTESDVHPSCKVTAMKCFLLELQVISLESGDASIHATVEALIILANNSLSSNAQVTESGCKECEELEEKNIKEFLQSFVHIVQMFINTS
heavy 2: QVQLVQSGAEVKKPGASVKVSCKASGYTFTDYAMHWVRQAPGQRLEWMGWINTYTGKPTYAQKFQGRVTITRDTSASTAYMELSSLRSEDTAVYYCARAVFYGYTMDAWGQGTLVTVSSASTKGPSVFPLAPSSKSTSGGTAALGCLVKDYFPEPVTVSWNSGALTSGVHTFPAVLQSSGLYSLSSVVTVPSSSLGTQTYICNVNHKPSNTKVDKKVEPKSCDKTHTCPPCPAPELLGGPDVFLFPPKPKDTLMISRTPEVTCVVVDVSHEDPEVKFNWYVDGVEVHNAKTKPREEQYNSTYRVVSVLTVLHQDWLNGKEYKCKVSNKALPLPEEKTISKAKGQPREPQVYTLPPSRDELTKNQVSLSCAVKGFYPSDIAVEWESNGQPENNYKTTPPVLDSDGSFFLVSKLTVDKSRWQQGNVFSCSVMHEALHNHYTQKSLSLSPG
light: DIQMTQSPSSLSASVGDRVTITCRASEDIYSNLAWYQQKPGKAPKLLIFSVKRLQDGVPSRFSGSGSGTDFTLTISSLQPEDFATYYCLQGSNFPLTFGQGTKVEIKRTVAAPSVFIFPPSDEQLKSGTASVVCLLNNFYPREAKVQWKVDNALQSGNSQESVTEQDSKDSTYSLSSTLTLSKADYEKHKVYACEVTHQGLSSPVTKSFNRGEC
modifications: Afucosylated Fc N-glycan (N297, both heavy chains); the letters cannot carry it.
notes: Same chains as m4, afucosylated; copies: 1 + 1 + 2
FcγRIIIa F158
  A/I (F158): 9370
FcγRIIIa V158
  A/I (V158): 13700

B3: hCl1a DLE-RLI DANA (other)
heavy 1: QVQLVQSGAEVKKPGASVKVSCKASGYTFTDYAMHWVRQAPGQRLEWMGWINTYTGKPTYAQKFQGRVTITRDTSASTAYMELSSLRSEDTAVYYCARAVFYGYTMDAWGQGTLVTVSSASTKGPSVFPLAPSSKSTSGGTAALGCLVKDYFPEPVTVSWNSGALTSGVHTFPAVLQSSGLYSLSSVVTVPSSSLGTQTYICNVNHKPSNTKVDKKVEPKSCDKTHTCPPCPAPELLGGPDVFLFPPKPKDTLMISRTPEVTCVVVDVSHEDPEVKFNWYVDGVEVHNAKTKPREEQYNSTYRVVSVLTVLHQDWLNGKEYKCKVSNKALPLPEEKTISKAKGQPREPQVYTLPPSRDELTKNQVSLWCLVKGFYPSDIAVEWESNGQPENNYKTTPPVLDSDGSFFLYSKLTVDKSRWQQGNVFSCSVMHEALHNHYTQKSLSLSPGITCPPPMSVEHADIWVKSYSLYSRERYICNSGFKRKAGTSSLTECVLNKATNVAHWTTPSLKCIRDPALVHQRPAPPSGGSGGGGSGGGSGGGGSGGNWVNVISDLKKIEDLIQSMHIDATLYTESDVHPSCKVTAMKCFLLELQVISLESGDASIHATVEALIILANNSLSSNAQVTESGCKECEELEEKNIKEFLQSFVHIVQMFINTS
heavy 2: QVQLVQSGAEVKKPGASVKVSCKASGYTFTDYAMHWVRQAPGQRLEWMGWINTYTGKPTYAQKFQGRVTITRDTSASTAYMELSSLRSEDTAVYYCARAVFYGYTMDAWGQGTLVTVSSASTKGPSVFPLAPSSKSTSGGTAALGCLVKDYFPEPVTVSWNSGALTSGVHTFPAVLQSSGLYSLSSVVTVPSSSLGTQTYICNVNHKPSNTKVDKKVEPKSCDKTHTCPPCPAPELLGGPDVFLFPPKPKDTLMISRTPEVTCVVVDVSHEDPEVKFNWYVDGVEVHNAKTKPREEQYNSTYRVVSVLTVLHQDWLNGKEYKCKVSNKALPLPEEKTISKAKGQPREPQVYTLPPSRDELTKNQVSLSCAVKGFYPSDIAVEWESNGQPENNYKTTPPVLDSDGSFFLVSKLTVDKSRWQQGNVFSCSVMHEALHNHYTQKSLSLSPG
light: DIQMTQSPSSLSASVGDRVTITCRASEDIYSNLAWYQQKPGKAPKLLIFSVKRLQDGVPSRFSGSGSGTDFTLTISSLQPEDFATYYCLQGSNFPLTFGQGTKVEIKRTVAAPSVFIFPPSDEQLKSGTASVVCLLNNFYPREAKVQWKVDNALQSGNSQESVTEQDSKDSTYSLSSTLTLSKADYEKHKVYACEVTHQGLSSPVTKSFNRGEC
notes: also called SOT202-DLE-DANA; copies: 1 + 1 + 2
FcγRIIIa F158
  A/I (F158): 228
FcγRIIIa V158
  A/I (V158): 464

B4: hCl1a AAA-RLI DANA afuc (other)
heavy 1: QVQLVQSGAEVKKPGASVKVSCKASGYTFTDYAMHWVRQAPGQRLEWMGWINTYTGKPTYAQKFQGRVTITRDTSASTAYMELSSLRSEDTAVYYCARAVFYGYTMDAWGQGTLVTVSSASTKGPSVFPLAPSSKSTSGGTAALGCLVKDYFPEPVTVSWNSGALTSGVHTFPAVLQSSGLYSLSSVVTVPSSSLGTQTYICNVNHKPSNTKVDKKVEPKSCDKTHTCPPCPAPELLGGPSVFLFPPKPKDTLMISRTPEVTCVVVDVSHEDPEVKFNWYVDGVEVHNAKTKPREEQYNATYRVVSVLTVLHQDWLNGKEYKCKVSNKALPAPIAATISKAKGQPREPQVYTLPPSRDELTKNQVSLWCLVKGFYPSDIAVEWESNGQPENNYKTTPPVLDSDGSFFLYSKLTVDKSRWQQGNVFSCSVMHEALHNHYTQKSLSLSPGITCPPPMSVEHADIWVKSYSLYSRERYICNSGFKRKAGTSSLTECVLNKATNVAHWTTPSLKCIRDPALVHQRPAPPSGGSGGGGSGGGSGGGGSGGNWVNVISDLKKIEDLIQSMHIDATLYTESDVHPSCKVTAMKCFLLELQVISLESGDASIHATVEALIILANNSLSSNAQVTESGCKECEELEEKNIKEFLQSFVHIVQMFINTS
heavy 2: QVQLVQSGAEVKKPGASVKVSCKASGYTFTDYAMHWVRQAPGQRLEWMGWINTYTGKPTYAQKFQGRVTITRDTSASTAYMELSSLRSEDTAVYYCARAVFYGYTMDAWGQGTLVTVSSASTKGPSVFPLAPSSKSTSGGTAALGCLVKDYFPEPVTVSWNSGALTSGVHTFPAVLQSSGLYSLSSVVTVPSSSLGTQTYICNVNHKPSNTKVDKKVEPKSCDKTHTCPPCPAPELLGGPSVFLFPPKPKDTLMISRTPEVTCVVVDVSHEDPEVKFNWYVDGVEVHNAKTKPREEQYNATYRVVSVLTVLHQDWLNGKEYKCKVSNKALPAPIAATISKAKGQPREPQVYTLPPSRDELTKNQVSLSCAVKGFYPSDIAVEWESNGQPENNYKTTPPVLDSDGSFFLVSKLTVDKSRWQQGNVFSCSVMHEALHNHYTQKSLSLSPG
light: DIQMTQSPSSLSASVGDRVTITCRASEDIYSNLAWYQQKPGKAPKLLIFSVKRLQDGVPSRFSGSGSGTDFTLTISSLQPEDFATYYCLQGSNFPLTFGQGTKVEIKRTVAAPSVFIFPPSDEQLKSGTASVVCLLNNFYPREAKVQWKVDNALQSGNSQESVTEQDSKDSTYSLSSTLTLSKADYEKHKVYACEVTHQGLSSPVTKSFNRGEC
modifications: Afucosylated Fc N-glycan (N297, both heavy chains); the letters cannot carry it.
notes: Same chains as m6, afucosylated; copies: 1 + 1 + 2
FcγRIIIa F158
  A/I (F158): 380
FcγRIIIa V158
  A/I (V158): 1010

B5: hCl1a AAA-RLI DANA (other)
heavy 1: QVQLVQSGAEVKKPGASVKVSCKASGYTFTDYAMHWVRQAPGQRLEWMGWINTYTGKPTYAQKFQGRVTITRDTSASTAYMELSSLRSEDTAVYYCARAVFYGYTMDAWGQGTLVTVSSASTKGPSVFPLAPSSKSTSGGTAALGCLVKDYFPEPVTVSWNSGALTSGVHTFPAVLQSSGLYSLSSVVTVPSSSLGTQTYICNVNHKPSNTKVDKKVEPKSCDKTHTCPPCPAPELLGGPSVFLFPPKPKDTLMISRTPEVTCVVVDVSHEDPEVKFNWYVDGVEVHNAKTKPREEQYNATYRVVSVLTVLHQDWLNGKEYKCKVSNKALPAPIAATISKAKGQPREPQVYTLPPSRDELTKNQVSLWCLVKGFYPSDIAVEWESNGQPENNYKTTPPVLDSDGSFFLYSKLTVDKSRWQQGNVFSCSVMHEALHNHYTQKSLSLSPGITCPPPMSVEHADIWVKSYSLYSRERYICNSGFKRKAGTSSLTECVLNKATNVAHWTTPSLKCIRDPALVHQRPAPPSGGSGGGGSGGGSGGGGSGGNWVNVISDLKKIEDLIQSMHIDATLYTESDVHPSCKVTAMKCFLLELQVISLESGDASIHATVEALIILANNSLSSNAQVTESGCKECEELEEKNIKEFLQSFVHIVQMFINTS
heavy 2: QVQLVQSGAEVKKPGASVKVSCKASGYTFTDYAMHWVRQAPGQRLEWMGWINTYTGKPTYAQKFQGRVTITRDTSASTAYMELSSLRSEDTAVYYCARAVFYGYTMDAWGQGTLVTVSSASTKGPSVFPLAPSSKSTSGGTAALGCLVKDYFPEPVTVSWNSGALTSGVHTFPAVLQSSGLYSLSSVVTVPSSSLGTQTYICNVNHKPSNTKVDKKVEPKSCDKTHTCPPCPAPELLGGPSVFLFPPKPKDTLMISRTPEVTCVVVDVSHEDPEVKFNWYVDGVEVHNAKTKPREEQYNATYRVVSVLTVLHQDWLNGKEYKCKVSNKALPAPIAATISKAKGQPREPQVYTLPPSRDELTKNQVSLSCAVKGFYPSDIAVEWESNGQPENNYKTTPPVLDSDGSFFLVSKLTVDKSRWQQGNVFSCSVMHEALHNHYTQKSLSLSPG
light: DIQMTQSPSSLSASVGDRVTITCRASEDIYSNLAWYQQKPGKAPKLLIFSVKRLQDGVPSRFSGSGSGTDFTLTISSLQPEDFATYYCLQGSNFPLTFGQGTKVEIKRTVAAPSVFIFPPSDEQLKSGTASVVCLLNNFYPREAKVQWKVDNALQSGNSQESVTEQDSKDSTYSLSSTLTLSKADYEKHKVYACEVTHQGLSSPVTKSFNRGEC
notes: See note of m4; also called SOT202-AAA-DANA; copies: 1 + 1 + 2
FcγRIIIa F158
  A/I (F158): 244
FcγRIIIa V158
  A/I (V158): 691
